Measurements as given in US9884910B2, “Anti-PDGF-C antibodies” (ThromboGenics NV, priority 2012, dated 2018).

B1: Humanized mAb 29H1: humanized 29H1; VH SEQ ID NO:106, VL SEQ ID NO:107 (antibody, V domains shown)
VH: EVQLLESGGGLVQPGGSLRLSCAASGFTFSNYGMSWVRQTPGKGLEWVATIGSGGHYTYYPDSVKGRFTISRDNAKNTLYLQMNSLRAEDTAVYYCARQAPLWDCSDYWGQGTLLTVSS
VL: DVVMTQSPLSLPVTLGQPASISCRSSQTIVHSDGTTYLEWYLQKPGQSPRLLIYKVSNRFSGVPDRFSGSGSGTDFTLKISRVEAEDVGVYYCFQGSHVPPTFGQGTKLEIK
modifications: humanized variable heavy chain murine monoclonal antibody 29 H1; humanized variable light chain murine monoclonal antibody 29 H1
B2: 29H1: murine monoclonal anti-PDGF-C antibody, IgG1 κ; VL SEQ ID NO:17, VH SEQ ID NO:21 (antibody, listed as Mus musculus, V domains shown)
VH: EVQLVESGGDLVKPGGSLKLSCAASGFTFSNYGMSWVRQTPDKRLEWVATIGSGGHYTYYPDSVKGRFTISRDSAKSTLYLQMSSLRSDDTAIYYCARQAPLWDCSDYWGQGTTLTVSS
VL: DVLMTQTPLSLPVSLGDQASISCRSNQSIVHSNGDTYLEWYLQKPGQSPNLLIYKVSNRFSGVPDRFSGSGSGTDFTLKISRVEAEDLGVYYCFQGSHVPPTFGGGTKLEIK

Columns and labels:
PDGF-C = target: T1, PDGF-C (Homo sapiens, UniProt Q9NRA1); assay: Surface Plasmon Resonance affinity of anti-PDGF-C antibodies for PDGF-C (Biacore 3000); assay type: binding; conditions: humanized antibodies; as in Example 3
T1 construct: the growth factor domain of PDGF-C (amino acids 235-345 of human PDGF-C); purchased R&D Systems 1687-CC/CF
Experimental: The different antibodies were each separately coated to a CM5 chip at a density of 1680 RU using standard amine chemistry. Different concentrations (200, 175, 150, 125, 100, 75, 50, 25, 12.5, 6.25, 3.125 & 0 nM) of PDGF-C (R&D Systems, Cat. 1687-CC/CF) were injected over the coated antibody for 5 min, then buffer was flowed for 10 min to monitor the dissociation of the captured antigen. The surface was regeneration between each run with a single injection of glycine-HCl, pH 2.5. Affinities were obtained by analyzing the sensorgrams with the help of the BIAevaluation 4.1 software assuming a 1:1 interaction. The experiment was performed with a Biacore 3000 instrument.
The affinity of the above-listed exemplary humanized anti-PDGF-C antibodies for PDGF-C was analysed (as in Example 3) and the humanized antibodies were subsequently assessed in the in vitro bioassay described in Example 4.

[1] = target: T2, PDGFRα activation by human PDGF-C (Homo sapiens, UniProt Q9NRA1); assay: PathHunter PDGFRα receptor tyrosine kinase assay in U2OS PDGFRα PLCG1 cells; assay type: cell-based
T2 construct: the growth factor domain of PDGF-C (amino acids 235-345 of human PDGF-C); purchased R&D Systems 1687-CC/CF; host or cells: ligand added to U2OS PDGFRα PLCG1 cells (DiscoveRx, assay 93-0823C3) that express the transfected receptor
Text: To evaluate the inhibitory activity of anti-human PDGF-C antibodies on PDGFRα activation by human PDGF-C, the PathHunter® receptor tyrosine kinase assay for PDGFRα (93-0823C3) from DiscoveRx® was used. […] A small complementing fragment of β-gal, the Prolink™ tag (PK) has been fused recombinantly to the intracellular C-terminus of the receptor tyrosine kinase PDGFRα. The larger portion of β-gal, termed EA for enzyme acceptor, is co-expressed with an SH2 (Src Homology 2) phosphotyrosine binding domain. Ligand-induced activation of the receptor results in dimerization and intra-cellular cross-phosphorylation of the receptor. Subsequently, the SH2 domain specifically binds the phosphorylated receptor resulting in the complementation of the two β-gal fragments PK and EA, and formation of a functional β-gal enzyme. Following addition of a β-gal substrate, an easily detectable chemiluminescent signal is produced which is directly correlated to receptor activation. The LumiLITE™ microplate reader is fully compatible with all EFC-based assays of DiscoveRx® and is therefore used.
For the PathHunter® PDGFRα, assay, U2OS PDGFRα, PLCG1 (phospholipase Cγ as the source of the SH2 domain) cells from DiscoveRx® were used. Frozen cells were stored in liquid nitrogen. Upon thawing, cells were resuspended in pre-warmed thawing medium (i.e. culture medium without the selection antibiotics Geneticin and Hygromycin B). After 48 hours of culture in a 5% CO2 incubator at 37° C., thawing medium was replaced by culture medium (MEM Eagle 1× (30-2003 from Invitrogen), 10% fetal bovine serum (SH30071.03 from Perbio Science), 1× Penicillin-Streptomycin-Glutamine (10378-016 from Invitrogen), 250 μg/ml Hygromycin B (10687-010 from Invitrogen), 500 μg/ml Geneticin (10131-035 from Invitrogen)). Once confluence was reached, cells were passaged with a ⅓ dilution every 2-3 days using Accutase (L11-007 from PAA). Cells were maintained in a non-confluent state during routine culture.
In the PathHunter® PDGFRα, assay, the U2OS PDGFRα, PLCG1 cells from DiscoveRx® cultured up to 10 passages were used. Cells were seeded at 20.000 cells in 100 μl per well in 96-well white culture-treated microplates with clear bottom (3610 from Corning). The PathHunter® Cell Plating 16 Reagent (93-0563R16 from DiscoveRx®) was employed as seeding medium. Following 24 hours of culture in 5% CO2 at 37° C., 25 μl of a 5-fold concentrated agonist solution in Cell Plating 16 Reagent was used per well to stimulate the cells. Recombinant human PDGF-C from R&D Systems (1687-CC/CF; Va1235-Gly345) was applied as agonist. After 3 hours incubation at room temperature, 60 μl of PathHunter® detection reagent (93-0001 from DiscoveRx®; 1 part Galacton Star® Substrate, 5 parts Emerald II™ Solution, and 19 parts of PathHunter® Cell Assay Buffer) was added. Cells were placed at room temperature and in the dark for another hour before luminescence was measured with the LumiLITE™ microplate reader. With GraphPad Prism® software, a non-linear regression analysis was performed using the obtained luminescent values in order to generate a sigmoidal agonist dose-response curve with variable slope. The EC50 (i.e. half maximal effective concentration) and EC80 value (i.e. the effective concentration that leads to 80% of the maximal response) for human PDGF-C was calculated.
To evaluate the inhibitory activity of anti-human PDGF-C antibodies on PDGFRα, activation by human PDGF-C, equal volumes of […] concentrated solutions of anti-human PDGF-C antibodies and the EC80 of human PDGF-C, prepared in Cell Plating 16 Reagent, were mixed and the assay was performed as described above. As positive controls, an anti-human PDGF-C polyclonal goat IgG antibody (AF1560 from R&D Systems) and recombinant human PDGFRα, Fc chimera (6765-PR from R&D Systems) were employed. […]

[2] = target: T3, 15-mer, overlapping peptides covering the entire human PDGF-C molecule (Homo sapiens, UniProt Q9NRA1); assay: Epitope mapping ELISA on 15-mer overlapping peptides; assay type: binding; conditions: peptide coated 10 μg/mL; antibody 1 μg/mL
T3 construct: host or cells: chemical synthesis
Experimental: The binding of anti-PDGF-C antibodies to 15-mer, overlapping peptides covering the entire human PDGF-C molecule was assessed by ELISA. Antibodies included in this analysis are the five antibodies potently inhibiting activation of PDGF-Rα by PDGF-C, i.e. monoclonal antibodies 2D3, 5A2, 5H7, 16B1 and 29H1. Further included are two antibodies capable of binding to PDGF-C, but not or very poorly inhibiting activation of PDGF-Rα by PDGF-C, i.e. monoclonal antibodies 12E5 (IgG1) and 19F12 (IgG2b) (see Example 4). […] For all antibodies, it was confirmed that they bind to human PDGF-C and binding to full-length human PDGF-C was for all antibodies tested more efficient than binding to any of the peptides identified as described hereafter.
The indicated peptides where synthesized in an N-terminally biotinylated form and coated onto a neutravidin plate (Thermo Scientific, Cat. 15127) at a concentration of 10 μg/mL. The antibodies listed in the table were incubated in each well at a concentration of 1 μg/mL and, following washing, were then detected in a standard ELISA format using an appropriate, HRP-labeled secondary antibody (goat anti-mouse IgG-HRP for all antibodies except sc-80290, and goat anti-rat IgG-HRP for sc-80290). Each antibody was tested at least twice, and up to 4 times. A “+” in the table indicate that a signal to background >3 was found and confirmed at least once. The background signal was measured in the absence of peptide using both the primary and the secondary antibodies. Antibodies sc-80290 and MAB1560 were tested only against peptides 42-63 since this represents the fraction of the protein that was used as an immunogen.

glioblastoma tumor, U118 = assay: Antitumor effect against U118 glioblastoma xenograft; assay type: in vivo
Experimental: For the evaluation of anti-tumor activity of the antibodies, animals were weighed and tumors measured 2 times weekly using a caliper. Tumor weights were calculated using the formula mass (mg)=[length (mm)×width (mm)^2]/2. Antitumor activity evaluation was done at the single dose of 20 mg/kg. A dosage producing a 20% body weight loss (bwl) or 10% or more drug deaths, was considered an excessively toxic dosage. Animal body weights included the tumor weights. The primary efficacy end point is the tumor growth inhibition (% TGI). Changes in tumor volume for each treated (T) and control (C) are calculated for each tumor by subtracting the tumor volume on the day of first treatment (staging day) from the tumor volume on the specified observation day. The median ΔT is calculated for the treated group and the median ΔC is calculated for the control group. Then the ratio ΔT/ΔC is calculated and expressed as a percentage of TGI: ΔT=Tt−T0 ΔC=Ct−C0 % TGI=[1−(median(Tt−T0)/median(Ct−C0)]*100
The antitumor effect of 29H1, 5A2 and 16B1 was evaluated against a measurable glioblastoma tumor, U118, which express both PDGF-C and its receptor, PDGFRa, S.C. implanted in female SCID Beige mice. Control group was treated with PBS alone. The antibodies were administered by an intraperitoneal (IP) injection, and treatment started on day 28 post-tumor implantation and was performed twice a week.

T2 sequence (Q9NRA1 235-345): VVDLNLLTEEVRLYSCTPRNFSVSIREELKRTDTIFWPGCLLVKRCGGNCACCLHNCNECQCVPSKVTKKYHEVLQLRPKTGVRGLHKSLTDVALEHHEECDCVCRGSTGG
T1 sequence (Q9NRA1 235-345): as above

Row | Molecule | Kd (PDGF-C) [nM] | IC50 ([1]; humanized antibodies, * average of 3 measurements) [nM] | binding to peptide No 58 (SEQ ID NO: 96) VLQLRPKTGVRGLHK [2] | tolerability / body weight loss (glioblastoma tumor, U118; 20 mg/kg IP twice a week) | TGI (%) Day 53 (glioblastoma tumor, U118; 20 mg/kg IP twice a week from day 28, day 53 post-tumor implantation) [%] | TGI (%) Day 56 (glioblastoma tumor, U118; 20 mg/kg IP twice a week from day 28, day 56 post-tumor implantation) [%] | TGI (%) Day 60 (glioblastoma tumor, U118; 20 mg/kg IP twice a week from day 28, day 60 post-tumor implantation) [%] | TGI (%) Day 63 (glioblastoma tumor, U118; 20 mg/kg IP twice a week from day 28, day 63 post-tumor implantation) [%] | TGI (%) Day 67 (glioblastoma tumor, U118; 20 mg/kg IP twice a week from day 28, day 67 post-tumor implantation) [%] | IC50 ([1]; Table 5 first IC50 column, PDGF-C at EC80, * average of 3 measurements) [nM] | IC50 ([1]; Table 5 second IC50 column (separate experiment), PDGF-C at EC80) [nM] | IC50 ([1]; Table 5 third IC50 column (separate experiment), PDGF-C at EC80) [nM]
1 | B1 | 0.7 | 8.24 | – | – | – | – | – | – | – | – | – | –
2 | B2 | – | – | + (A “+” in the table indicate that a signal to background >3 was found and confirmed at least once) | well-tolerated with no tumor body weight loss | 39.4 | 53.0 | 53.8 | 42.8 | 50.0 | 3.45 | 0.87 | 0.24
